According to patent publication US11833164B2, “Methods of treating Fabry disease in patients having a mutation in the GLA gene” (Amicus Therapeutics, Inc., priority 2019, dated 2023):

B1: Y151D (protein)
chain: MQLRNPELHLGCALALRFLALVSWDIPGARALDNGLARTPTMGWLHWERFMCNLDCQEEPDSCISEKLFMEMAELMVSEGWKDAGYEYLCIDDCWMAPQRDSEGRLQADPQRFPHGIRQLANYVHSKGLKLGIYADVGNKTCAGFPGSFGDYDIDAQTFADWGVDLLKFDGCYCDSLENLADGYKHMSLALNRTGRSIVYSCEWPLYMWPFQKPNYTEIRQYCNHWRNFADIDDSWKSIKSILDWTSFNQERIVDVAGPGGWNDPDMLVIGNFGLSWNQQVTQMALWAIMAAPLFMSNDLRHISPQAKALLQDKDVIAINQDPLGKQGYQLRQGDNFEVWERPLSGLAWAVAMINRQEIGGPRSYTIAVASLGKGVACNPACFITQLLPVKRKLGFYEWTSRLRSHINPTGTVLLQLENTMQMSLKDLL
B2: Y151S (protein)
chain: MQLRNPELHLGCALALRFLALVSWDIPGARALDNGLARTPTMGWLHWERFMCNLDCQEEPDSCISEKLFMEMAELMVSEGWKDAGYEYLCIDDCWMAPQRDSEGRLQADPQRFPHGIRQLANYVHSKGLKLGIYADVGNKTCAGFPGSFGSYDIDAQTFADWGVDLLKFDGCYCDSLENLADGYKHMSLALNRTGRSIVYSCEWPLYMWPFQKPNYTEIRQYCNHWRNFADIDDSWKSIKSILDWTSFNQERIVDVAGPGGWNDPDMLVIGNFGLSWNQQVTQMALWAIMAAPLFMSNDLRHISPQAKALLQDKDVIAINQDPLGKQGYQLRQGDNFEVWERPLSGLAWAVAMINRQEIGGPRSYTIAVASLGKGVACNPACFITQLLPVKRKLGFYEWTSRLRSHINPTGTVLLQLENTMQMSLKDLL
B3: Y152F (protein)
chain: MQLRNPELHLGCALALRFLALVSWDIPGARALDNGLARTPTMGWLHWERFMCNLDCQEEPDSCISEKLFMEMAELMVSEGWKDAGYEYLCIDDCWMAPQRDSEGRLQADPQRFPHGIRQLANYVHSKGLKLGIYADVGNKTCAGFPGSFGYFDIDAQTFADWGVDLLKFDGCYCDSLENLADGYKHMSLALNRTGRSIVYSCEWPLYMWPFQKPNYTEIRQYCNHWRNFADIDDSWKSIKSILDWTSFNQERIVDVAGPGGWNDPDMLVIGNFGLSWNQQVTQMALWAIMAAPLFMSNDLRHISPQAKALLQDKDVIAINQDPLGKQGYQLRQGDNFEVWERPLSGLAWAVAMINRQEIGGPRSYTIAVASLGKGVACNPACFITQLLPVKRKLGFYEWTSRLRSHINPTGTVLLQLENTMQMSLKDLL
B4: Y152S (protein)
chain: MQLRNPELHLGCALALRFLALVSWDIPGARALDNGLARTPTMGWLHWERFMCNLDCQEEPDSCISEKLFMEMAELMVSEGWKDAGYEYLCIDDCWMAPQRDSEGRLQADPQRFPHGIRQLANYVHSKGLKLGIYADVGNKTCAGFPGSFGYSDIDAQTFADWGVDLLKFDGCYCDSLENLADGYKHMSLALNRTGRSIVYSCEWPLYMWPFQKPNYTEIRQYCNHWRNFADIDDSWKSIKSILDWTSFNQERIVDVAGPGGWNDPDMLVIGNFGLSWNQQVTQMALWAIMAAPLFMSNDLRHISPQAKALLQDKDVIAINQDPLGKQGYQLRQGDNFEVWERPLSGLAWAVAMINRQEIGGPRSYTIAVASLGKGVACNPACFITQLLPVKRKLGFYEWTSRLRSHINPTGTVLLQLENTMQMSLKDLL
B5: D153A (protein)
chain: MQLRNPELHLGCALALRFLALVSWDIPGARALDNGLARTPTMGWLHWERFMCNLDCQEEPDSCISEKLFMEMAELMVSEGWKDAGYEYLCIDDCWMAPQRDSEGRLQADPQRFPHGIRQLANYVHSKGLKLGIYADVGNKTCAGFPGSFGYYAIDAQTFADWGVDLLKFDGCYCDSLENLADGYKHMSLALNRTGRSIVYSCEWPLYMWPFQKPNYTEIRQYCNHWRNFADIDDSWKSIKSILDWTSFNQERIVDVAGPGGWNDPDMLVIGNFGLSWNQQVTQMALWAIMAAPLFMSNDLRHISPQAKALLQDKDVIAINQDPLGKQGYQLRQGDNFEVWERPLSGLAWAVAMINRQEIGGPRSYTIAVASLGKGVACNPACFITQLLPVKRKLGFYEWTSRLRSHINPTGTVLLQLENTMQMSLKDLL
B6: D153H (protein)
chain: MQLRNPELHLGCALALRFLALVSWDIPGARALDNGLARTPTMGWLHWERFMCNLDCQEEPDSCISEKLFMEMAELMVSEGWKDAGYEYLCIDDCWMAPQRDSEGRLQADPQRFPHGIRQLANYVHSKGLKLGIYADVGNKTCAGFPGSFGYYHIDAQTFADWGVDLLKFDGCYCDSLENLADGYKHMSLALNRTGRSIVYSCEWPLYMWPFQKPNYTEIRQYCNHWRNFADIDDSWKSIKSILDWTSFNQERIVDVAGPGGWNDPDMLVIGNFGLSWNQQVTQMALWAIMAAPLFMSNDLRHISPQAKALLQDKDVIAINQDPLGKQGYQLRQGDNFEVWERPLSGLAWAVAMINRQEIGGPRSYTIAVASLGKGVACNPACFITQLLPVKRKLGFYEWTSRLRSHINPTGTVLLQLENTMQMSLKDLL
B7: D153N (protein)
chain: MQLRNPELHLGCALALRFLALVSWDIPGARALDNGLARTPTMGWLHWERFMCNLDCQEEPDSCISEKLFMEMAELMVSEGWKDAGYEYLCIDDCWMAPQRDSEGRLQADPQRFPHGIRQLANYVHSKGLKLGIYADVGNKTCAGFPGSFGYYNIDAQTFADWGVDLLKFDGCYCDSLENLADGYKHMSLALNRTGRSIVYSCEWPLYMWPFQKPNYTEIRQYCNHWRNFADIDDSWKSIKSILDWTSFNQERIVDVAGPGGWNDPDMLVIGNFGLSWNQQVTQMALWAIMAAPLFMSNDLRHISPQAKALLQDKDVIAINQDPLGKQGYQLRQGDNFEVWERPLSGLAWAVAMINRQEIGGPRSYTIAVASLGKGVACNPACFITQLLPVKRKLGFYEWTSRLRSHINPTGTVLLQLENTMQMSLKDLL
B8: D153V (protein)
chain: MQLRNPELHLGCALALRFLALVSWDIPGARALDNGLARTPTMGWLHWERFMCNLDCQEEPDSCISEKLFMEMAELMVSEGWKDAGYEYLCIDDCWMAPQRDSEGRLQADPQRFPHGIRQLANYVHSKGLKLGIYADVGNKTCAGFPGSFGYYVIDAQTFADWGVDLLKFDGCYCDSLENLADGYKHMSLALNRTGRSIVYSCEWPLYMWPFQKPNYTEIRQYCNHWRNFADIDDSWKSIKSILDWTSFNQERIVDVAGPGGWNDPDMLVIGNFGLSWNQQVTQMALWAIMAAPLFMSNDLRHISPQAKALLQDKDVIAINQDPLGKQGYQLRQGDNFEVWERPLSGLAWAVAMINRQEIGGPRSYTIAVASLGKGVACNPACFITQLLPVKRKLGFYEWTSRLRSHINPTGTVLLQLENTMQMSLKDLL
B9: D153Y (protein)
chain: MQLRNPELHLGCALALRFLALVSWDIPGARALDNGLARTPTMGWLHWERFMCNLDCQEEPDSCISEKLFMEMAELMVSEGWKDAGYEYLCIDDCWMAPQRDSEGRLQADPQRFPHGIRQLANYVHSKGLKLGIYADVGNKTCAGFPGSFGYYYIDAQTFADWGVDLLKFDGCYCDSLENLADGYKHMSLALNRTGRSIVYSCEWPLYMWPFQKPNYTEIRQYCNHWRNFADIDDSWKSIKSILDWTSFNQERIVDVAGPGGWNDPDMLVIGNFGLSWNQQVTQMALWAIMAAPLFMSNDLRHISPQAKALLQDKDVIAINQDPLGKQGYQLRQGDNFEVWERPLSGLAWAVAMINRQEIGGPRSYTIAVASLGKGVACNPACFITQLLPVKRKLGFYEWTSRLRSHINPTGTVLLQLENTMQMSLKDLL

Test system: mutant form of α-Gal A expressed in HEK-293 cells
Test: HEK assay (GLP HEK / Migalastat Amenability Assay): α-Gal A activity in lysates of transiently transfected HEK-293 cells incubated with or without 10 μM migalastat
Format: cell-based, human
Details: for Absolute increase (% WT): 10 μM migalastat versus baseline; for Relative increase: 10 μM migalastat α-Gal A activity relative to baseline; for 10 μM migalastat α-Gal A activity (% WT): 5 days; for 10 μM migalastat α-Gal A activity (% WT) / Baseline α-Gal A activity (% WT): percentage of baseline wild-type α-Gal A activity; for 10 μM migalastat α-Gal A activity (% WT) / Baseline α-Gal A activity (% WT) / Baseline α-Gal A activity / 10 μM migalastat α-Gal A activity: mean ± SEM; for Baseline α-Gal A activity (% WT): absence of migalastat; for Baseline α-Gal A activity / 10 μM migalastat α-Gal A activity: lysates of HEK-293 cells transfected with the mutant form; for Baseline α-Gal A activity: incubated 5 days in the absence of migalastat; for 10 μM migalastat α-Gal A activity: incubated 5 days with 10 μM migalastat
In short: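 HEK-293 cells transiently transfected with mutant α-Gal A and incubated with or without 10 μM migalastat; lysate activity given as nmol free 4-MU released per mg protein per hour. Values are mean±SEM.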

Molecule | Absolute increase (% WT) | Relative increase | 10 μM migalastat α-Gal A activity (% WT) | Baseline α-Gal A activity (% WT) | Baseline α-Gal A activity [nmol/mg/h] | 10 μM migalastat α-Gal A activity [nmol/mg/h]
B1 | 11.5 | 1.4 | 40.8 ± 2.2 | 29.3 ± 1.7 | 10673 ± 604 | 15196 ± 1025
B2 | 22.2 | 1.3 | 107 ± 4.9 | 84.8 ± 4.2 | 30047 ± 1943 | 37527 ± 2003
B3 | 11.4 | 1.3 | 56.8 ± 2.7 | 45.4 ± 2.6 | 18675 ± 907 | 23612 ± 1095
B4 | 19.6 | 1.7 | 46.7 ± 2.6 | 27.1 ± 1.7 | 9917 ± 917 | 16642 ± 1218
B5 | 21.6 | 1.4 | 81.6 ± 2.3 | 60.1 ± 2.4 | 22606 ± 1445 | 30854 ± 1997
B6 | 20.5 | 1.3 | 81 ± 2.1 | 60.5 ± 2.2 | 23578 ± 1741 | 31052 ± 1774
B7 | 24.1 | 1.3 | 89.7 ± 4.4 | 65.6 ± 2.8 | 29386 ± 1518 | 39338 ± 1551
B8 | 25.0 | 2.2 | 42.4 ± 1.6 | 17.4 ± 2 | 7357 ± 1139 | 16301 ± 766
B9 | 23.3 | 1.8 | 52.4 ± 2.8 | 29.1 ± 3.1 | 12609 ± 1299 | 22535 ± 1174
